The values below come from PMC11564870.

One data set deals with mOct4 POU;mSox2 HMG (mouse;mouse, UniProt P20263;P48432 131-282;41-119, |). Briefly: EMSA. (In general: Mobility shift assays separate free from complexed probe on a gel.)
For a further data set, the target named is T1, Monbr Sox-like HMG (Monosiga brevicollis, UniProt A9VCR9 107-175).
T1 sequence: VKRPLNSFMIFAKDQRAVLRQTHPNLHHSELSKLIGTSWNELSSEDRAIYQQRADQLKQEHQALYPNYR
Briefly: EMSA.

Chain of mOct4 POU;mSox2 HMG (P20263 131-282, chain 1 of 2): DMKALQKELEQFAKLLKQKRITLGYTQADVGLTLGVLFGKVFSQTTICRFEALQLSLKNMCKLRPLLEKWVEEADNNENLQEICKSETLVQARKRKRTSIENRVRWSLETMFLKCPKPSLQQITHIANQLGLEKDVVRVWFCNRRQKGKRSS
Chain of mOct4 POU;mSox2 HMG (P48432 41-119, chain 2 of 2): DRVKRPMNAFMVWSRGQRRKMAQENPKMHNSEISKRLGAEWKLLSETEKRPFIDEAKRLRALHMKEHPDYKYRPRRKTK

B1: SoxOct canonical (dsDNA)
DNA 1: GCGGCATTGTCATGCAAATCGGCGG
DNA 2: CCGCCGATTTGCATGACAATGCCGC
For the molecule B1, the binding result with mOct4 POU;mSox2 HMG was “binds”.

B2: Sox consensus (dsDNA)
DNA 1: GGCGGCGGCATTGTCCGGCGCGCGG
DNA 2: CCGCGCGCCGGACAATGCCGCCGCC
Regarding B2, the binding result with Monbr Sox-like HMG is listed as “no binding”.
